Measurements taken from US20190284243A1 (UNIVERSITY OF COPENHAGEN, published 2019).
Ends that are not written are not given here. PEGA1900 = not defined here

B3: hexapeptide HRMVRG (SEQ ID NO: 4) (peptide)
peptide: HRMVRG-PEGA1900
modifications: reading uncertain
notes: also called HRMVRG-PEGA1900; hexapeptide partner

How the values were obtained:
[1] = target: T1, β-body (2) TTYTYPGDTFTI (SEQ ID NO: 58) (with a fluorescent probe (2-F*) or on beads, by assay); assay: fluorescent β-body on beads modified with (2)
T1 construct: the assay field says which was which; also called 2-F*; bead-(2)
T1 peptide: TTYTYPGDTFTI

[2] = target: B3; assay: pairs of beads of two libraries adhering to each other, identified by MSMS
Description: This example illustrates how to identify a β-body recognizing a linear peptide. A split-mix library of 21.000.000 β-bodies according to the invention were prepared by combinatorial synthesis as described in Example 4 above. This was performed on 100 μm beads with no fluorescence. A second split mix library of 470.000 hexapeptides were prepared in a similar manner except that this library was prepared on larger 400 μm beads with fluorescence label attached to some functional groups. The two libraries were mixed and pairs of beads adhering to each other in pairs with one large fluorescent and one small non-fluorescent bead were collected and the two peptides were identified by MSMS. […] EGFP is an abbreviation of Enhanced Green Fluorescent Protein.

[3] = target: T2, Enhanced Green Fluorescent Protein (UniProt P42212 1-238 = GFP); assay: green fluorescence on HRMVRG-PEGA1900 beads
T2 construct: treated as one molecule; also called EGFP; eGFP

B1: β-body (3) TFTFTFPGLTRTHT (SEQ ID NO: 59) (designed binder)
peptide: TFTFTFPGLTRTHT
modifications: also: with a fluorescent probe, place not given here
notes: The text calls it a modified version of (2); also called fluorescent-(3)
**Q.** Which “fold reduction of binding against fluorescent-(1)” value [1] does the source give for B1 here?
**A.** 7 fold

B2: β-body KTGTQNLTGPGRTHTQTATEG (SEQ ID NO: 3) (peptide)
peptide: KTGTQNLTGPGRTHTQTATEG
notes: Found from a one-bead-one-compound library K(TX)4PG(XT)4EG
**Q.** Does B2 bind [2]?
**A.** binds

**Q.** Does B3 bind [3]?
**A.** no binding
